Assay results as given in article PMC2725194.

Key:
Assay in all cases: AlphaScreen or HTRF
[1] = target: PPARα ligand binding domain (LBD)
[2] = target: PPARδ ligand binding domain (LBD)
[3] = target: PPARγ ligand binding domain (LBD)

Measured: AlphaScreen signal

N-terminal biotinylated CBP1 peptide
< 800: all assays above
